Target: SNID2 peptide of the CD3 zeta chain
Assay: ITC

Substance	Kd [µM]	dH [kcal/mol]	stoichiometry N
HIV-2 consensus Nef	12	-12.3	1.08
SIVmac239 Nef core domain harboring the C-terminal region (domain or fragment)	–	-14.2	1.05
